Experimental data taken from patent publication US20260035452A1 (THE UNIVERSITY OF BIRMINGHAM, priority 2022, published 2026).

How the values were obtained:
[1] = test system: hPBMC on cytokine-stimulated HDBEC monolayers; experiment: Human PBMC static adhesion / transendothelial migration assay; assay type: cell-based; conditions: co-treatment plus TNF-α
Experimental: FIG. 10: Human dermal blood endothelial cells (HDBEC) were treated with: IL-17 vehicle (Ctrl), IL-17 or FM-0410 (100 ng/ml), alone or in combination with TNF-α (100 U/ml) for 24 h. Cells were washed, gated in their totality and singlet before the identification of IL-17Rs (RA and RC) (A, B), ICAM (C) and VCAM (D) expression. Histogram values (expressed as MIF) indicate the total positive cells (A-D). In (E) are shown phase-contrast micrographs of confluent monolayers of untreated or treated (as reported before) HDBEC. Total adhesion (expressed as INT/mm^2, F) and % of transmigration (G) are calculated with Image Pro programme (DataCell, Finchampstead). Inflammatory supernatants from all experimental conditions were assayed by Elisa for IL-6 (H) expressed in pg/ml. Data were presented as means±S.D. of n=3 healthy donors. […]
Human PBMC transendothelial migration assay: Prior to beginning the assay, HDBEC monolayers were washed with 37° C. medium 199 (Thermo Fisher Scientific) supplemented with 0.15% w/v BSA (MilliporeSigma) to remove any residual cytokines. hPBMC (1×10^6) were co-cultured with cytokine-stimulated HDBEC monolayers at 37° C. for 20 min. […] Total hPBMC adhesion and mean percentage transmigration were calculated for each well.

IL-17RA = IL-17RA (Homo sapiens, UniProt Q96F46); conditions: cited from earlier work
dorsal air pouch of mice = conditions: single administration 1 μg/pouch into 6-day old air pouch; previous studies; cited from earlier work
[2] = test system: NIH-3T3 mouse embryonic fibroblast cells; experiment: IL-6 secretion by NIH-3T3 fibroblasts (Elisa); assay type: cell-based; conditions: NIH-3T3 cells, 50 ng/ml, vs control / IL-17 group
Experimental: FIG. 2: NIH-3T3 mouse embryonic fibroblast cells were treated with IL-17 vehicle (Ctrl), IL-17 (50 ng/ml) alone (IL-17) or peptide (FM-0410) (50 ng/ml) and supernatants were assayed by Elisa for IL-6. Data were expressed as pg/ml and presented as means±S.D. of three separate independent experiments. Statistical analysis was conducted by one-way ANOVA followed by Bonferroni's for multiple comparisons. ^##P≤0.01, ^###P≤0.005 vs Ctrl group; *P≤0.05 vs IL-17 group. In order to assess the biological activity of synthesized peptide, we carried out in vitro studies using NIH-3T3 mouse embryonic fibroblast cells. […] With this in vitro system we measured IL-17 activity by its ability to induce IL-6 secretion by NIH-3T3 mouse embryonic fibroblast cells. Methods: The levels of IL-6 in the cellular and air pouch inflammatory supernatants at 24 h were measured using commercially available enzyme-linked immunosorbent assay kit (ELISA kit, R&D System, Milan, Italy) according to the manufacturer instructions. […] The addition of 100 μl of the substrate and stop solution represented the last steps before the reading of absorbance (measured at 450 nm) on a microplate reader. Antigen levels in the samples were determined using a standard curve and expressed as pg/ml. […]

B1: IL-17: recombinant mouse IL-17 purchased from R&D System; full-length cytokine used as comparator and stimulus (protein, UniProt Q62386 26-158, looked up)
Interleukin-17A: AAIIPQSSACPNTEAKDFLQNVKVNLKVFNSLGAKVSSRRPSDYLNRSTSPWTLHRNEDPDRYPSVIWEAQCRHQRCVNAEGKLDHHMNSVLIQQEILVLKREPESCPFTFRVEKMLVGVGCTCVASIVRQAA
- total number of adhered hPBMC [1]: significant increase
- transmigrated hPBMC [1]: significant increase
- affinity of IL-17RA for IL-17A compared to IL-17F (IL-17RA): ~100 fold
- time of peak of leukocyte infiltration (dorsal air pouch of mice): 24 h
- IL-6 release [2]: significant increase in IL-6 release compared to control group
